Test results published in US20230331848A1 (BIOSION, published 2023).
Positions count from the first letter of the chain named.

T1: recombinant mouse PD-1-his protein (Cat#:50124-M08H, Sino Biological Inc) (mouse, UniProt Q02242 25-167)
T1 construct: Bought protein used in Biacore and indirect ELISA; not shown: his tag
T1 sequence (looked up): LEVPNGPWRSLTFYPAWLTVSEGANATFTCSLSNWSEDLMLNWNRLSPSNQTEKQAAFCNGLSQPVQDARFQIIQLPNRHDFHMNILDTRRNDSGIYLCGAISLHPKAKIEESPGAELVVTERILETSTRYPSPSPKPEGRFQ

B1: humanized antibody huE1A9C8A7-V5 (antibody, human IgG4 S228P, kappa)
heavy: not shown
light: DIVMTQTPLSLPVTPGEPASISCRSSQSIVHSNGNTYLEWYLQKPGQSPQLLIYKVSNRFSGVPDRFSGSGSGTDFTLKISRVEAEDVGVYYCFQGSHVPYTFGGGTKVEIKRTVAAPSVFIFPPSDEQLKSGTASVVCLLNNFYPREAKVQWKVDNALQSGNSQESVTEQDSKDSTYSLSSTLTLSKADYEKHKVYACEVTHQGLSSPVTKSFNRGEC
notes: Human IgG4/kappa
B2: humanized antibody huE1A9C8A7-V10 (antibody, human IgG4 S228P, kappa, V domains shown)
VH: QVQLVQSGAEVVKPGASVKISCKASGYTFTDYVMHWVRQAPGQSLEWIGVISTYHIPAVYNQKFKGKVTMTVDTSTSTVYLELSSLRSEDTAVYYCAREVYGDSYYFDVWGQGTTVTVSS
VL: DIVMTQTPLSLPVTPGEPASISCRSSQSIVHSNGNTYLEWYLQKPGQSPQLLIYKVSNRFSGVPDRFSGSGSGTDFTLKISRVEAEDVGVYYCFQGSHVPYTFGGGTKVEIKR
notes: Human IgG4/kappa
B3: humanized antibody huE1A9C8A7-V7 (antibody, human IgG4 S228P, kappa, V domains shown)
VH: B2 VH with S44G, V68A
VL: B2 VL
notes: Human IgG4/kappa
B4: humanized antibody huE1A9C8A7-V2 (antibody, human IgG4 S228P, kappa, V domains shown)
VH: B2 VH with V37M, V68A, T74K
VL: B2 VL
notes: Human IgG4/kappa
B5: humanized antibody huE1A9C8A7-V11 (antibody, human IgG4 S228P, kappa, V domains shown)
VH: B2 VH with V68A, V72R
VL: B2 VL
notes: Human IgG4/kappa
B6: humanized antibody huE1A9C8A7-V6 (antibody, human IgG4 S228P, kappa)
heavy: not shown
light: B1 light
notes: Human IgG4/kappa
B7: humanized antibody huE1A9C8A7-V4 (antibody, human IgG4 S228P, kappa, V domains shown)
VH: B2 VH with T30S, V37M, V68A
VL: B2 VL
notes: Human IgG4/kappa
B8: humanized antibody huE1A9C8A7-V1 (antibody, human IgG4 S228P, kappa, V domains shown)
VH: B2 VH with T30S, V37M, V68A, T74K
VL: B2 VL
notes: Human IgG4/kappa
B9: humanized antibody huE1A9C8A7-V9 (antibody, human IgG4 S228P, kappa, V domains shown)
VH: B2 VH with K67R, V68A
VL: B2 VL
notes: Human IgG4/kappa
B10: Chimeric E1A9C8A7 antibody (antibody, human IgG4 S228P, kappa, V domains shown)
VH: QVQLQQSGAEVVRPGVSVRISCKGSGYTFSDYVMHWMKQSHGESLEWIGVISTYHIPAVYNQKFKGKATMTVDKSSSTVYLELARLTSEDSAIYYCAREVYGDSYYFDVWGAGTTVTVSS
VL: DVLMTQIPLSLPVSLGDQVSISCRSSQSIVHSNGNTYLEWYLQKPGQSPKLLIYKVSNRFSGVPDRFSGSGSGTDFTLKISRVEAEDLGVYYCFQGSHVPYTFGGGTKLEIKR
notes: also called chimeric antibody E1A9C8A7

How the values were obtained:
[1] = molecular target: T2, human PD-1 expressed on GS-J2/PD-1 cells (Genscript) (human, UniProt Q15116 25-288); test: flow cytometry on GS-J2/PD-1 cells
T2 construct: whole, on cells; also called cell-surface human PD-1
Procedure: In specific, the 293F-mouse PD-1 cells and GS-J2/PD-1 cells were respectively harvested from cell culture flasks, washed twice and re-suspended in PBS containing 2% v/v Fetal Bovine Serum (FACS buffer). Then, 2×10⁵ cells per well were incubated in 96 well-plates with 100 μl of the anti-PD1 antibodies or controls at various concentrations for 40 minutes on ice. […] Following an incubation of 40 minutes at 4° C. in dark, cells were washed three times and re-suspended in FACS buffer. Fluorescence was measured using a Becton Dickinson FACS Canto II-HTS equipment and plotted against antibody concentrations. Data was analyzed using GraphPad Prism software and EC₅₀ values were reported.
For the cell-based binding FACS, R-Phycoerythrin AffiniPure Goat Anti-human IgG Fcγ fragment specific (Cat#:109-115-098, Jackson ImmunoResearch) was used for the humanized antibodies, with 1:1000 dilution in FACS buffer, 100 μl/well.

[2] = molecular target: T3, human PD-1-his protein prepared in-house (human, UniProt Q15116 25-167, biotin-labeled (sites not given)); test: capture ELISA, antibody captured, biotin human PD-1-his detected
T3 construct: also called biotin labeled human PD-1-his
Procedure: Briefly, 96-well micro plates were coated with 100 μl 2 μg/ml AffiniPure Goat Anti-Mouse IgG F(ab′)₂ fragment specific (Cat#:115-005-072, Jackson lmmunoResearch) or Goat-anti-human IgG (Cat#:109-005-097, Jackson ImmunoResearch, for the positive control and negative control) in PBS overnight at 4° C. Plates were washed once with wash buffer (PBST, PBS+0.05% Tween-20) and then blocked with 200 μl/well blocking buffer (5% w/v non-fatty milk in PBST) for 2 hours at 37° C. […] After a final wash, plates were incubated with 100 μl/well TMB (Cat#:TMB-S-002, Innoreagents) at room temperature.
For the capture ELISA, 96-well plates were coated with 100 μl 2 μg/ml AffiniPure Goat Anti-Human IgG, Fcγ fragment specific (Cat#:109-005-098, Jackson Immunoresearch) instead of AffiniPure goat-anti-mouse IgG F(ab′)₂ fragment specific.

[3] = molecular target: T4, in house made human PD-1-Fc protein (human, biotin-labeled (sites not given)); test: competitive ELISA: biotin human PD-1-Fc + antibody on coated human PD-L1-Fc (competitor)
T4 construct: also called biotin-labeled human PD-1-Fc
Procedure: Briefly, 100 μl human PD-L1-Fc protein (prepared in-house with SEQ ID NO: 28) at 2 μg/mL in carbonate/bicarbonate buffer (pH 9.6) was coated on 96-well micro plates overnight at 4° C., Plates were washed with wash buffer (PBS+0.05% w/v Tween-20, PBST), and blocked with 5% w/v non-fatty milk in PBST for 2 hours at 37° C. […] After incubation at 37° C. for 40 minutes, plates were washed using wash buffer. […] Plates were washed again using wash buffer. Finally, TMB was added and the reaction was stopped using 1M H₂SO₄. The absorbance was read on a microplate reader using dual wavelength mode with 450 nm for TMB and 630 nm as the reference wavelength, then the OD (450-630) values were plotted against antibody concentrations. Data was analyzed using Graphpad Prism software and IC₅₀ values were reported.

[4] = molecular target: T4, in house made human PD-1-Fc protein; test: blocking FACS: biotin human PD-1-Fc + antibody on GS-C2/PD-L1 cells (competitor: cell-surface human PD-L1)
Procedure: GS-C2/PDL1 cells were harvested from cell culture flasks at the log phase, washed twice and re-suspended in PBS containing 2% v/v Fetal Bovine Serum (FACS buffer). GS-C2/PD-L1 cells, 0.6×10⁵ cells per welt, were incubated in 96 well-plates with 100 the antibody/PD1-Fc mixture for 40 minutes at 4° C. Cells were washed twice with FACS buffer, added with 100 R-Phycoerythrin Streptavidin (1:500 dilution in FACS buffer, Cat#:016-110-084, Jackson Immunoresearch), and incubated for 40 minutes at 4° C. in dark. Cells were washed twice and re-suspended in FACS buffer. Fluorescence was measured using a Becton Dickinson FACS Canto II-HTS equipment. Data was analyzed using Graphpad Prism software and IC₅₀ values were reported.

[5] = molecular target: T3, human PD-1-his protein prepared in-house; test: competitive ELISA: biotin human PD-1-his + antibody on coated Pembrolizumab (competitor)
Procedure: ELISA plates were washed once with wash buffer (PBST, PBS+0.05% Tween-20) and then blocked with 200 μl/well blocking buffer (5% w/v non-fatty milk in PBST) for 2 hours at 37° C. […] After incubation at 37° C. for 40 minutes, plates were washed using wash buffer, added and incubated with 100 μl/well Peroxidase Streptavidin for 40 minutes at 37° C. Plates were washed again using wash buffer. Finally, TMB was added and the reaction was stopped using 1M H₂SO₄. The absorbance was read on a microplate reader using dual wavelength mode with 450 nm for TMB and 630 nm as the reference wavelength, and the OD (450-630) values were plotted against antibody concentrations. Data was analyzed using Graphpad Prism software and IC₅₀ values were reported.

[6] = molecular target: T2, human PD-1 expressed on GS-J2/PD-1 …; test: cell-based or functional assay
[7] = molecular target: T5, cynomolgus PD-1-his protein (Cat#:PD1-05223, Acro biosystems Inc.) (cynomolgus, UniProt B0LAJ3 25-170); test: indirect ELISA on coated cynomolgus PD-1-his
T5 construct: Bought protein used in Biacore and indirect ELISA; also called monkey PD-1; Cyno PD-1

[8] = molecular target: T6, human PD-1-his protein (Cat#:PD1-H5221, Acro biosystems Inc.) (human, UniProt Q15116 25-167); test: BLI (Octet RED96), supernatant antibody captured on AHC sensor, human PD-1-his in solution, 1:1 fit
T6 construct: not shown: his tag
Procedure: (§1) Briefly, AHC biosensors (anti-human IgG Fe capture, from ForteBio) were presoaked with 10 mM glycine (pH 1.5) for 3 seconds, and then dipped in a well with running buffer (0.5% w/v BSA in PBST) for 3 seconds, the soaking and dipping steps were repeated for three times. […] A new baseline was run for 100 seconds in another well with running buffer. Then the sensors were dipped in a well with serially diluted human PD-1-his protein (Cat#:PD1-H5221, Acro biosystems Inc., starting at 100 nM with a two-fold serial dilution) in running buffer for 120 seconds, and then immersed in a baseline well for […]. Finally, sensors were presoaked with 10 mM glycine (pH 1.5) for 30 seconds, and then were dipped in a well with running buffer for 30 seconds. The association and dissociation curves were fit to a 1:1 Langmuir binding model using ForteBio Data Analysis 8.1 evaluation software.

[9] = molecular target: T1, recombinant mouse PD-1-his protein …; test: SPR (Biacore), protocol of Example 2
[10] = molecular target: T7, recombinant human PD-1-his protein (Cat#:10377-H08H, Sino biological Inc.) (human, UniProt Q15116 25-167); test: SPR (Biacore), protocol of Example 2
T7 construct: Bought protein used as analyte in the Biacore tests; not shown: his tag

[11] = molecular target: T6, human PD-1-his protein (Cat#:PD1-H5221, …); test: BLI (Octet RED96), antibody captured on AHC sensor, human PD-1-his in solution, 1:1 fit (second run)
Procedure: as §1

[12] = molecular target: T6, human PD-1-his protein (Cat#:PD1-H5221, …); test: BLI (Octet RED96), antibody captured on AHC sensor, human PD-1-his in solution, 1:1 fit
Procedure: as §1

Binder	Kd [8]	koff [8]	kon [8]	further results
B1	1.01 nM	0.000213 s⁻¹	211000 M⁻¹ s⁻¹	EC50 [1]: 0.66 nM; EC50 [2]: 0.21 nM; IC50 [3]: 0.35 nM; IC50 [4]: 0.54 nM; IC50 [5]: 0.54 nM; Cell-based functional assay (EC50, nM) [6]: 9.3 nM; EC50 [7]: 0.9 nM
B2	1.59 nM	0.000385 s⁻¹	242000 M⁻¹ s⁻¹	–
B3	1.5 nM	0.000356 s⁻¹	237000 M⁻¹ s⁻¹	–
B4	1.49 nM	0.000294 s⁻¹	197000 M⁻¹ s⁻¹	–
B5	1.53 nM	0.000296 s⁻¹	194000 M⁻¹ s⁻¹	–
B6	1.84 nM	0.000428 s⁻¹	233000 M⁻¹ s⁻¹	–
B7	1.49 nM	0.00027 s⁻¹	182000 M⁻¹ s⁻¹	–
B8	1.54 nM	0.000317 s⁻¹	206000 M⁻¹ s⁻¹	–
B9	1.63 nM	0.000413 s⁻¹	253000 M⁻¹ s⁻¹	–
B10	–	–	–	EC50 [1]: 0.67 nM; Kd [9]: 162 nM; koff [9]: 0.027 s⁻¹; kon [9]: 167000 M⁻¹ s⁻¹; Kd [10]: 1.11 nM; koff [10]: 0.000645 s⁻¹; kon [10]: 580000 M⁻¹ s⁻¹; Kd [11]: 2.18 nM; koff [11]: 0.000597 s⁻¹; kon [11]: 274000 M⁻¹ s⁻¹; EC50 [2]: 0.21 nM; IC50 [3]: 0.38 nM; IC50 [4]: 0.57 nM; Kd [12]: 1.32 nM; koff [12]: 0.000316 s⁻¹; kon [12]: 239000 M⁻¹ s⁻¹; IC50 [5]: 0.61 nM; Cell-based functional assay (EC50, nM) [6]: 7.45 nM; EC50 [7]: 0.85 nM
